This is an account of results in WO2020148554A1 (dated 2020).

For the assay, the target named is T1, Sudan Gulu glycoprotein (NC_006432.1) expressed on MDCK-SIAT1 cells (Sudan Gulu (SUDV), UniProt Q7T9D9 33-676).
T1 sequence: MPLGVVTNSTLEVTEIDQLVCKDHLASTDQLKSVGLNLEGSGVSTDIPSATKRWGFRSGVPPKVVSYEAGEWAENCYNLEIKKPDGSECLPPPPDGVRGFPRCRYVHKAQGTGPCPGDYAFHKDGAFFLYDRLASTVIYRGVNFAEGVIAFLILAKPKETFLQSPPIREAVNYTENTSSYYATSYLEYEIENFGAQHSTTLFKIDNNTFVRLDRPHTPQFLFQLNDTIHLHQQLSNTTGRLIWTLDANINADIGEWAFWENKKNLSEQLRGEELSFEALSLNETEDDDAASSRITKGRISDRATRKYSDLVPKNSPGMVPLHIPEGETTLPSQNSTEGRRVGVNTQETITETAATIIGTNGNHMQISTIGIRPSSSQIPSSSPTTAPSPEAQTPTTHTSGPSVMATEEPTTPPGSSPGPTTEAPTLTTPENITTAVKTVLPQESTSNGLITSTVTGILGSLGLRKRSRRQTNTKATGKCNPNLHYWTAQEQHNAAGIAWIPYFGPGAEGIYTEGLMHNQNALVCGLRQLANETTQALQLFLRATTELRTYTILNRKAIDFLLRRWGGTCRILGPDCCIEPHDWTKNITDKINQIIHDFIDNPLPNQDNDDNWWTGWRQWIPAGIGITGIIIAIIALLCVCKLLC
Briefly: indirect immunofluorescence by FACS on MDCK-SIAT1 cells expressing GP.

B1: 6541 (antibody, V domains shown)
VH: EVQLVQWGAGLLKPSETLSLTCAVYGGSFSGNYWTWIRQPPGKGLEWIGEINHSGSTNYNPSLKSRVTISVDTSKNQFSLKLSSVTAADTAVYYCATKMGGYGDYWHWYFDLWGRGTMVTVSS
VL: EVVMTQSPATLSVSPGERATLSCRASQSLFTNLAWYQQKPGQAPRLLIYGASTRATGIPARFSGSGSGTDFSLTISRLQSEDFAFYYCQQYNDWPLTFGGGTKVDIKR
Consider B1, for which the binding result was “binds”.

B2: 040 (antibody, V domains shown)
VH: QVQLVESGGGFVQPGGSLRLSCAASGFTFSSYAMSWVRQAPGKGLEWVSTISGSGGTTYYADSVKGRFTISRDNSKNTLYLEMITLRAEDTATYFCANSYYYHSSGLLIRWDDMDVWGQGTTVTVSS
VL: DIQMTQSPSSLSASVGDRVTITCRASQGIRNDLGWYQQKPGKAPKRLIYAASSLQSGVPSRFSGSGSGTEFTLTISSLQPEDFATYYCLQHSSYPWTFGQGTKVEIKR
With B2, the binding result was “binds”.

B3: 6662 (antibody, V domains shown)
VH: EVQLVESGGGLVKPGGSLRLSCAASGFGFSSAWMNWVRQAPGKGLEWVGRIKSKTDGGKTDYAAPVKGRFIMSRDDSKNTLYLQMNSLKTEDAGVYYCTTRIVLNGMDVWGQGTLVTVSS
VL: QSVLTQPPSVSGAPGQRVTISCTGSSSNIGAGYDVHWYQQLPGTAPKLLIYANNNRPSGVPDRFSGSKSGTSASLAITGLQAEDEADYYCQSYDSRLSDGVVFGGGTKLTVLG
Take B3: the binding result was “binds”.

B4: 66-3-9C (antibody, V domains shown)
VH: EVQLVESGGGLVKPGGSLRLSCAASGFTFSSYNMNWVRQAPGKGLEWVSSITTSSSYIYYAYSVKGRFTISRDNAKNSLYLQMNSLRAEDTAVYYCARFLGYSYGTNYYYYGMDVWGQGTTVTVSS
VL: not shown
Consider B4, for which the binding result is “binds”.
